tested on: AncSZ; assay: phosphorylation enrichment, bacterial display (enrichment ratio); higher = better substrate or ligand; peptides without Tyr show the background
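Further: 11-residue human phosphosite peptides and single-mutation variants displayed on the E. coli surface, counted by deep sequencing, each peptide's frequency after selection divided by its frequency in the unselected input library; frequency after pTyr selection over input frequency; kinase dosed for 20-30% of maximal phosphorylation in three min.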

Sequence	phosphorylation enrichment
IYRASYYRRGD [LTK_Y676]	0.821
SLYPGYNFRYA [P2RX7_Y291]	0.63
LGKGSYAKVRS [TSSK2_Y23_K27R]	1.02
DCLASYLDKVR [KRT10_Y160_R156C]	0.886
LDLPGYCLLRE [CCDC116_Y291_P293L]	1.82
MSSHHYDFKKF [ZNF445_Y428_YF]	0.466
LSIDRYHAIVF [NPSR1_Y147_YF]	1.56
GAMGHYVLAER [HFE_Y342]	0.643
IDDNEYAYLKA [HNF4A_Y286]	1.24
LSQAKYQIRYR [CRLF1_Y272_F268S]	0.617
FQRITYHNWRH [PDE6B_Y556_R552Q_YF]	0.55
NTYEKYWPFYQ [GATM_Y103]	1.41
DGYTDYAEFAK [MCFD2_Y138_I136T]	1.03
DPHKIYEFVNS [IRF3_Y107]	0.984
KPNMNYDKLSW [FLI1_Y332_R337W]	0.751
RRGMPYGGCGD [TGM1_Y312_R315C]	0.782

target: EPHB1 (UniProt P54762); assay: as above
Sequence (P54762 whole entry, looked up): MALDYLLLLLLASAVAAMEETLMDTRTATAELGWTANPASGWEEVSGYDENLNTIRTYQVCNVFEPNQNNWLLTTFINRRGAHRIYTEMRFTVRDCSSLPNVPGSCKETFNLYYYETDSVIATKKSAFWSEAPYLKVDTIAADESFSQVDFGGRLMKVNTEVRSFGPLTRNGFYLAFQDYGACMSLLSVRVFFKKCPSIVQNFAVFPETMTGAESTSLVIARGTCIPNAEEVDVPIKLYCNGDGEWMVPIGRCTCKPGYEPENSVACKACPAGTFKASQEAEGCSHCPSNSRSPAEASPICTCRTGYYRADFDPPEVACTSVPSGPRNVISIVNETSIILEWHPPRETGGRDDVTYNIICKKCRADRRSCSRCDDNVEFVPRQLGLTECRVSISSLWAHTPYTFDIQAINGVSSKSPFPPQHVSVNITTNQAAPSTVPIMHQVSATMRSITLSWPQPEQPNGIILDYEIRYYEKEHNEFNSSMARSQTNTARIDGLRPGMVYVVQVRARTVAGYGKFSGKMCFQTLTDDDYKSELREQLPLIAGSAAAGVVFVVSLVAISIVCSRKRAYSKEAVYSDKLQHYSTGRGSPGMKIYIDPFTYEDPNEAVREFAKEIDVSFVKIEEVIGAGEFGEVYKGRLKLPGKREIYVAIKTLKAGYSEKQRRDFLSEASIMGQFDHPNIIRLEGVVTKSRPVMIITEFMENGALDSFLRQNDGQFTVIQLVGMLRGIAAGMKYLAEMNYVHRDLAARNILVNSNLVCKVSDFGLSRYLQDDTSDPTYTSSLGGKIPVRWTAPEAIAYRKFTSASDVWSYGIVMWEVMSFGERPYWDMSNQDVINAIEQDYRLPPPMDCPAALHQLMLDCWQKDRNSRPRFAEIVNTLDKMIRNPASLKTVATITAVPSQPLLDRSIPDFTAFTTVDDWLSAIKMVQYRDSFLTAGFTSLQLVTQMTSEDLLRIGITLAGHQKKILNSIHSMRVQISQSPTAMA

Sequence	phosphorylation enrichment
IYRASYYRRGD [LTK_Y676]	0.398
SLYPGYNFRYA [P2RX7_Y291]	0.423
LGKGSYAKVRS [TSSK2_Y23_K27R]	0.395
DCLASYLDKVR [KRT10_Y160_R156C]	0.55
LDLPGYCLLRE [CCDC116_Y291_P293L]	1.88
MSSHHYDFKKF [ZNF445_Y428_YF]	0.533
LSIDRYHAIVF [NPSR1_Y147_YF]	0.753
GAMGHYVLAER [HFE_Y342]	0.387
IDDNEYAYLKA [HNF4A_Y286]	0.507
LSQAKYQIRYR [CRLF1_Y272_F268S]	0.506
FQRITYHNWRH [PDE6B_Y556_R552Q_YF]	0.449
NTYEKYWPFYQ [GATM_Y103]	6.55
DGYTDYAEFAK [MCFD2_Y138_I136T]	0.829
DPHKIYEFVNS [IRF3_Y107]	18.2
KPNMNYDKLSW [FLI1_Y332_R337W]	0.644
RRGMPYGGCGD [TGM1_Y312_R315C]	0.551

target: EPHB2 (UniProt P29323); assay: as above
Sequence (P29323 whole entry, looked up): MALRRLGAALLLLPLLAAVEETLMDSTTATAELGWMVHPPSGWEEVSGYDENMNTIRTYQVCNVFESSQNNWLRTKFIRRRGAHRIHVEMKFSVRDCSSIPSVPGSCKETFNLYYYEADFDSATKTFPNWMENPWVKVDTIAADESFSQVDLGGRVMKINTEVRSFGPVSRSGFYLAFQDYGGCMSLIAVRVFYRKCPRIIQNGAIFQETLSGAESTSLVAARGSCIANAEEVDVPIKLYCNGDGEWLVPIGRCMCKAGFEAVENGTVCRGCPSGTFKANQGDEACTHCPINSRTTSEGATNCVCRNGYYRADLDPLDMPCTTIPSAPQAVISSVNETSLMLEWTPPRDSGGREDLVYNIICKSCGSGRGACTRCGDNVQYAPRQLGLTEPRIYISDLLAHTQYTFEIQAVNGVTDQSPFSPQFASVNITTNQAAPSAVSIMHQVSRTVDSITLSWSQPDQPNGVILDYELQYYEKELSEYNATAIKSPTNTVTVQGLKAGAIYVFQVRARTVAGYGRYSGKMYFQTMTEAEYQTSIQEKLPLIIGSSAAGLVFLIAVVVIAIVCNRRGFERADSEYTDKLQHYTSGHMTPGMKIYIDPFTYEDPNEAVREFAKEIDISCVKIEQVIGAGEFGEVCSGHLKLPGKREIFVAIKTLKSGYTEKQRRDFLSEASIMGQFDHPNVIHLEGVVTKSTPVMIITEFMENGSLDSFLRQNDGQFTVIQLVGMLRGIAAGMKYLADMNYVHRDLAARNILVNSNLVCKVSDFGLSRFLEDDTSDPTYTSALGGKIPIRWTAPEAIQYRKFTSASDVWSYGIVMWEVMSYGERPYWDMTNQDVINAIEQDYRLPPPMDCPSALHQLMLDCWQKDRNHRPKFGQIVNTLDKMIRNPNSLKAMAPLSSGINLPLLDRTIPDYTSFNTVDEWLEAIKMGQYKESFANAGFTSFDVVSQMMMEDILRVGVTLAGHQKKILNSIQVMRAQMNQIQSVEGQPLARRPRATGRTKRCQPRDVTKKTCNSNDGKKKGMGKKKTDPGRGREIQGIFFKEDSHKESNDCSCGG

Sequence	phosphorylation enrichment
IYRASYYRRGD [LTK_Y676]	0.422
SLYPGYNFRYA [P2RX7_Y291]	0.604
LGKGSYAKVRS [TSSK2_Y23_K27R]	0.408
DCLASYLDKVR [KRT10_Y160_R156C]	0.659
LDLPGYCLLRE [CCDC116_Y291_P293L]	1.28
MSSHHYDFKKF [ZNF445_Y428_YF]	0.311
LSIDRYHAIVF [NPSR1_Y147_YF]	1.04
GAMGHYVLAER [HFE_Y342]	0.403
IDDNEYAYLKA [HNF4A_Y286]	0.601
LSQAKYQIRYR [CRLF1_Y272_F268S]	0.764
FQRITYHNWRH [PDE6B_Y556_R552Q_YF]	0.511
NTYEKYWPFYQ [GATM_Y103]	8.15
DGYTDYAEFAK [MCFD2_Y138_I136T]	0.706
DPHKIYEFVNS [IRF3_Y107]	19.2
KPNMNYDKLSW [FLI1_Y332_R337W]	0.893
RRGMPYGGCGD [TGM1_Y312_R315C]	0.486

target: FGFR1 (UniProt P11362); assay: as above
Sequence (P11362 whole entry, looked up): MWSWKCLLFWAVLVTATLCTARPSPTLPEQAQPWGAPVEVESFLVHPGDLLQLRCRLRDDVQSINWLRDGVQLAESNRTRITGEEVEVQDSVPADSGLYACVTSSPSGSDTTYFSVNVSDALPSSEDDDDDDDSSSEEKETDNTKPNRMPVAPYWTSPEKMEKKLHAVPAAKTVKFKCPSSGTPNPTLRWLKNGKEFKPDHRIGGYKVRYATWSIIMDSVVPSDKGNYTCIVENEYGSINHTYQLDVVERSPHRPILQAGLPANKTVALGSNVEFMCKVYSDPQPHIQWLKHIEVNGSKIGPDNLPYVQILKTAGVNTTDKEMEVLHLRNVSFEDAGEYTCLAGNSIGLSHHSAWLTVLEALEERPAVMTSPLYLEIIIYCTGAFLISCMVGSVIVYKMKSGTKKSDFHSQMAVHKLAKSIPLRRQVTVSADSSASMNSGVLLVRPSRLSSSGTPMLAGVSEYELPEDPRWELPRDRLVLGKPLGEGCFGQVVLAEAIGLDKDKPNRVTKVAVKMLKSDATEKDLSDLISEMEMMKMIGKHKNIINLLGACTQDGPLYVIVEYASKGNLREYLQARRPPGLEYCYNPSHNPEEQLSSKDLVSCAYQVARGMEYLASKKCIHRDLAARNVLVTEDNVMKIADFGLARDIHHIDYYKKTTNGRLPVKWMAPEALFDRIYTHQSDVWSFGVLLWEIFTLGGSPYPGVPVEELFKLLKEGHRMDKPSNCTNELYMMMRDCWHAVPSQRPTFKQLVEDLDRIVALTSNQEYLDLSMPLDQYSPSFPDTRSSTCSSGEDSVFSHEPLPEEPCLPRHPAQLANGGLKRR

Sequence	phosphorylation enrichment
IYRASYYRRGD [LTK_Y676]	0.481
SLYPGYNFRYA [P2RX7_Y291]	0.44
LGKGSYAKVRS [TSSK2_Y23_K27R]	0.558
DCLASYLDKVR [KRT10_Y160_R156C]	0.56
LDLPGYCLLRE [CCDC116_Y291_P293L]	1.03
MSSHHYDFKKF [ZNF445_Y428_YF]	0.339
LSIDRYHAIVF [NPSR1_Y147_YF]	1.22
GAMGHYVLAER [HFE_Y342]	0.38
IDDNEYAYLKA [HNF4A_Y286]	1
LSQAKYQIRYR [CRLF1_Y272_F268S]	0.638
FQRITYHNWRH [PDE6B_Y556_R552Q_YF]	0.447
NTYEKYWPFYQ [GATM_Y103]	2.76
DGYTDYAEFAK [MCFD2_Y138_I136T]	0.754
DPHKIYEFVNS [IRF3_Y107]	1.77
KPNMNYDKLSW [FLI1_Y332_R337W]	0.428
RRGMPYGGCGD [TGM1_Y312_R315C]	0.634

Reference: the supplement of paper PMC10065799, “High-throughput profiling of sequence recognition by tyrosine kinases and SH2 domains using bacterial peptide display” (eLife, 2023)
